This experiment addresses T1, SA2–SCC1 complex (SA2 amino acid residues 80–1060 with SCC1 amino acid residues 281–420) (UniProt Q8N3U4 80-1060; O60216 281-420).
T1 construct: SA2 (STAG2), cohesin subunit, residues 80-1060; SCC1 (RAD21, Mcd1), cohesin subunit, residues 281-420; also called cohesin subcomplex SA2–SCC1; CES
T1 sequence (looked up) 1: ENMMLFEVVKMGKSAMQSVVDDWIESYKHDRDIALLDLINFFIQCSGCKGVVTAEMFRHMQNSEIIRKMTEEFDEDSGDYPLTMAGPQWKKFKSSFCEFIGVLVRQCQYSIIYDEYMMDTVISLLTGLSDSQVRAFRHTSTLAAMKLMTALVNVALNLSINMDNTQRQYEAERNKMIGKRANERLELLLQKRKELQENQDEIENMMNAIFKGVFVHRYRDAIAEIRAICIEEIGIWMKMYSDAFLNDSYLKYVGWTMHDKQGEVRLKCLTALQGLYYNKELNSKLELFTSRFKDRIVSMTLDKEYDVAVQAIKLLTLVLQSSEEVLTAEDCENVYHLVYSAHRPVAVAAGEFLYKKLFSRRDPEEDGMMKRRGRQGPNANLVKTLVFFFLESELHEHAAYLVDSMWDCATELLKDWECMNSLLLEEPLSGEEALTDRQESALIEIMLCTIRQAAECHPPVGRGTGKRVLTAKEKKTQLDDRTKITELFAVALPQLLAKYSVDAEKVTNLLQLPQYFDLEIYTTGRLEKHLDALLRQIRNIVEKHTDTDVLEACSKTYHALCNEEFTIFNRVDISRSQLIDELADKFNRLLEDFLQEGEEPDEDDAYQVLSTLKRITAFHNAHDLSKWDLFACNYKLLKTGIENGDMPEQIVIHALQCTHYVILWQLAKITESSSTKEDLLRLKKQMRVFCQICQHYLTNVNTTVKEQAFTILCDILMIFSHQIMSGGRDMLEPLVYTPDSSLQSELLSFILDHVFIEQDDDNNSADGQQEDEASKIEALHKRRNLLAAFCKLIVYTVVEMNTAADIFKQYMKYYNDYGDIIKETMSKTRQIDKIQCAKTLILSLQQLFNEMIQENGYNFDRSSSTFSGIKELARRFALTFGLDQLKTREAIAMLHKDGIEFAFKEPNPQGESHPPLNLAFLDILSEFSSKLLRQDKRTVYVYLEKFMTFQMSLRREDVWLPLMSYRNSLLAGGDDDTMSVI
T1 sequence (looked up) 2: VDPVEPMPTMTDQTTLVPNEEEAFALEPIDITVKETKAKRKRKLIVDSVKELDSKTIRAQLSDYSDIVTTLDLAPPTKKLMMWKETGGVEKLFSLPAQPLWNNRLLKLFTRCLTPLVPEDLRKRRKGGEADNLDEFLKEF
Briefly: ITC; performed as described previously (ref. 21); data analysed with Origin 7.0; SGO1 peptides with SA2–SCC1. To be noted: both partners purified.

Results on two molecules are retold here after publication PMC10279526, “Structural basis of centromeric cohesion protection” (Nature Structural & Molecular Biology, 2023).

Non-standard residues stand in square brackets, D forms with d. No end group written: not given here. pT = C[C@@H](OP(=O)(O)O)[C@H](N)C(=O)O

B1: SGO1 peptide spanning amino acids 331–341 (SNDAYNFNLEE) (peptide)
peptide: SNDAYNFNLEE
notes: Shugoshin 1 (SGO1), human, residues 331-341 with the YxF motif; also called SGO1 331–341; nonphosphorylated SGO1 peptide
B1 returned a Kd of 13.5 ± 1.4 µM.

B2: SGO1 peptide spanning amino acids 331–349 containing phosphorylated pT346 (SNDAYNFNLEEGVHLpTPFR) (peptide)
peptide: SNDAYNFNLEEGVHL[pT]PFR
notes: Shugoshin 1 (SGO1), human, residues 331-349, T346 phosphorylated; also called T346-phosphorylated SGO1 fragment; SGO1 331–349 pT346
The molecule B2 registered a dissociation constant Kd of 2.3 ± 0.4 µM.
